Measurements as given in US20230064703A1 (NANJING GENSCRIPT BIOTECH, published 2023).
Residue numbers refer to the chain shown, from its start.

B1: humanized antibody 225H7D12 VH1.1 + VL1.2 (antibody, V domains shown)
VH: QVQLVQSGAEVKKPGASVKVSCKTTGYRFTGYWIEWVRQAPGQGLEWIGEILPGSGVSNNNEKFRDRATMTADTSISTAYMELSRLRSDDTAVYYCARKASYYTMDYWGQGTLVTVSS
VL: DIQMTQSPSSLSASVGDRVTITCTASSSVSSFYFHWYQQKPGKAPKLWIYSISNLASGVPSRFSGSGSGTSYTLTISSLQPEDFATYYCHQYHRSPRTFGGGTKLEIK
B2: humanized antibody 225H7D12 VH1.3 + VL1.2 (antibody, V domains shown)
VH: B1 VH with T24A, T25S, R38K, S77N
VL: B1 VL
B3: humanized antibody 225H7D12 VH1.4 + VL1.2 (antibody, V domains shown)
VH: B1 VH with R38K, M70F, S77N
VL: B1 VL
B4: anti-GITR mouse monoclonal antibody 223F12C4 (antibody, V domains shown)
VH: QVQLQQSGAELVKPGASVKVSCKASGYSFTSYWIHWVKQRPGQGLEWIGRIHPSDGDIDHNEKFKGKATLTVDKSSSTAYMQLTSLTSEDSAVYYCLCYIMDYWGQGTSVTVSS
VL: DIQMNQSPSSLSASLGDTIAITCHASQNINVWLSWYQQKPGNIPKLLIYKAAKLQTGVPSRFSGSGSGTGFTLTISSLQPEDIATYYCHQGQDYPLTFGAGTKLELK
B5: anti-GITR mouse monoclonal antibody 163H12G7 (antibody, V domains shown)
VH: QVQLQQSGAELASPGASVKMSCKASGYTFSTYTVHWVKQRPGQGLEWIGYINPASGYTNYNQKFKDRATLTADRSSTTAYMQLSGLTSEDSAVFYCARWSYWYFDVWGTGTTVTVSS
VL: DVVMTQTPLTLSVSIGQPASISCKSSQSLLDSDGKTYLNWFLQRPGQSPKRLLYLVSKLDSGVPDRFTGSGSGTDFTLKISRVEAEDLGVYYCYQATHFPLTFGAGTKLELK
B6: anti-GITR mouse monoclonal antibody 134D7B3 (antibody, V domains shown)
VH: QVQLQQSGAELVRPGTSVKVSCKASGYAFNNYVIEWVKQRPGQGLEWIGVIYPGNGGSDYNEKFKVKAKLTADKSSSTAYMQLSSLTSDDSAVYFCARFYYFGSSYAMDYWGQGTSVTVSS
VL: DIQMTQTTSSLSASLGDRVTISCRASQDISNYLNWYQQKPDGTIKLLIYYTSRLHSGVPSRFSGSGSGTDYSLTITNLEQEDIATYFCQQGNTLPFTFGSGTKLEIK
B7: humanized antibody 270C5C10 VH1.2 + VL1 (antibody, V domains shown)
VH: QVQLVQSGAEVKKPGASVKVSCKASGYTFTDNYMNWVRQAPGQSLEWIGDINPNNGGSRYKEKFKDRATLTVDTSIRTAYMELSRLRSDDTAVYYCANPGSYGFAYWGQGTLVTVSS
VL: DVVMTQSPLSLPVTLGQPASISCKSSQSLLDSDGRTYLNWFQQRPGQSPRRLIYLVSQLDSGVPDRFSGSGSGTDFTLKISRVEAEDVGVYYCWQGTHFPWTFGGGTKLEIK
B8: humanized antibody 270C5C10 VH1.4 + VL1 (antibody, V domains shown)
VH: B7 VH with V37A, A40S
VL: B7 VL
B9: anti-GITR mouse monoclonal antibody 45F1F3 (antibody, V domains shown)
VH: DVQLQESGPGLVKPSQSLSLTCTVTGYSITIDYAWNWIRQFPGNKLEWMGYISNSGYTSYNPSLKSRISFTRDTSKNQFFLQLNSVTPEDSATYYCTRSGHYDLFDYWGQGTTLTVSS
VL: DVVMTQAPLTLSVTIGQPASISCKSSQSLFDRDGKTYLSWLLERPGQSPKRLIYLVSNLDSGVPDRFTGSGSGTDFTLKISRVEAEDLGVYYCWQGTHFPYTFGGGTKVEMK
B10: humanized antibody 45F1F3 VH1.4 + VL1.1 (antibody, V domains shown)
VH: DVQLQESGPGLVKPSQTLSLTCTVTGYSITIDYAWNWIRQPPGKGLEWMGYISNSGYTSYNPSLKSRITFSRDTSKNQFFLKLSSVTAADTAVYYCTRSGHYDLFDYWGQGTTVTVSS
VL: B9 VL with A7S, T10S, S12P, I15L, E43Q, K50R, T68S, L88V, M111I
B11: chimeric antibody 45F1F3 (human IgG1) (antibody, V domains shown)
VH: B9 VH
VL: DVVMTQAPLTLSVTIGQPASISCKSSQSLFDRDGKTYLSWLLERPGQSPKRLIYLVSNLDSGVPDRFTGSGSGTDFTLKISRVEAEDLGVYYCWQGTHFPYTFGGGTKVEMKR
B12: humanized antibody 45F1F3 VH1.3 + VL1.1 (antibody, V domains shown)
VH: B10 VH with D1Q, I68V, F70I
VL: B9 VL with A7S, T10S, S12P, I15L, E43Q, K50R, T68S, L88V, M111I
B13: chimeric antibody 225H7D12 (human IgG1) (antibody, V domains shown)
VH: QVQLQQSGAEVMKPGASVKLSCKTTGYRFTGYWIEWVKQRPGHGLEWIGEILPGSGVSNNNEKFRDKATFTADTSSNTAYIQLSSLTTDDSAIYYCARKASYYTMDYWGQGTSVTVSS
VL: QIVLTQSPAIMSASLGERVTMTCTASSSVSSFYFHWYQQKPGSSPKLWIYSISNLASGVPTRFSGSGSGTSYSLTISSMEAEDAATYYCHQYHRSPRTFGGGTKLEIKR
B14: anti-GITR mouse monoclonal antibody 225H7D12 (antibody, V domains shown)
VH: B13 VH
VL: QIVLTQSPAIMSASLGERVTMTCTASSSVSSFYFHWYQQKPGSSPKLWIYSISNLASGVPTRFSGSGSGTSYSLTISSMEAEDAATYYCHQYHRSPRTFGGGTKLEIK
B15: chimeric antibody 270C5C10(Ha-L) (human IgG1) (antibody, V domains shown)
VH: EVQLQQSGPEVVKPGASVKISCKASGYTFTDNYMNWAKQSQGKSLEWIGDINPNNGGSRYKEKFKDKATLTVDKSSRTAYMELRSLTSEDSAVYYCANPGSYGFAYWGQGTLVTVSA
VL: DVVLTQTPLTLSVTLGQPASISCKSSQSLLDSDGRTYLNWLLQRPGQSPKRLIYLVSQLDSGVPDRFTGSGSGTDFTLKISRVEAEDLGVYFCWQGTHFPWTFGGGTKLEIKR

Legend:
Test in all cases: cell-based or functional assay
[1] = molecular target: T1, GITR expressed on the effector cell line of the reporter gene assay
[2] = molecular target: T1, GITR expressed on the effector cell …; remark: listed apart in the source
[3] = molecular target: T1, GITR expressed on the effector cell …; remark: listed apart in the source

| Binder | EC50, GITR functional reporter gene assay (GenScript, NFkB luciferase) [1] | EC50, GITR functional reporter gene assay (luciferase) [2] | other results |
| --- | --- | --- | --- |
| B1 | 1.17 µg/mL | – | – |
| B2 | 1.18 µg/mL | – | – |
| B3 | 1.46 µg/mL | – | – |
| B4 | – | 0.151 µg/mL | – |
| B5 | – | 0.0137 µg/mL | – |
| B6 | – | 1.05 µg/mL | – |
| B7 | 0.0745 µg/mL | – | – |
| B8 | ~0.0355 µg/mL | – | – |
| B9 | – | 0.0145 µg/mL | – |
| B10 | 1.09 µg/mL | – | – |
| B11 | ~1.09 µg/mL | – | Bottom, GITR functional reporter gene assay [3]: 16300; EC50, GITR functional reporter gene assay [3]: 0.0145 µg/mL; LogEC50, GITR functional reporter gene assay [3]: -1.84; Span, GITR functional reporter gene assay [3]: 32000; Top, GITR functional reporter gene assay [3]: 48300 |
| B12 | 1.08 µg/mL | – | – |
| B13 | 1.26 µg/mL | – | Bottom, GITR functional reporter gene assay [3]: 16800; EC50, GITR functional reporter gene assay [3]: 0.0796 µg/mL; LogEC50, GITR functional reporter gene assay [3]: -1.1; Span, GITR functional reporter gene assay [3]: 37000; Top, GITR functional reporter gene assay [3]: 53800 |
| B14 | – | 0.0796 µg/mL | – |
| B15 | ~0.0374 µg/mL | – | Bottom, GITR functional reporter gene assay [3]: 18000; EC50, GITR functional reporter gene assay [3]: 0.386 µg/mL; LogEC50, GITR functional reporter gene assay [3]: -1.41; Span, GITR functional reporter gene assay [3]: 31500; Top, GITR functional reporter gene assay [3]: 49500 |
